Laboratory results from patent US8679782B2, “Production of triacylglycerides, fatty acids, and their derivatives” (Massachusetts Institute of Technology, priority 2009, dated 2014).

What was measured:
[1] = NAD(P)H-dependent glyceraldehyde 3-phosphate dehydrogenase (ND-G3PDH) activity assay; assay type: biochemical; settings: purified histidine-tagged protein vs empty vector fractions; G3P and NAD(P)+
Method: NP-G3PDH activity was assayed as previously described with minor modifications (9). Briefly, reactions contained 1 mM NAD(P)+, 1 mM glyceraldehyde 3-phosphate and either […] of purified TadD or […] of crude bacterial lysate in a final volume of 1 ml. Reactions were incubated at 37° C. for one hour. Following incubation, the optical density of the reactions was measured at 340 nm. R. opacus cultures were grown in either lysogeny broth or MR medium supplemented with 4% glucose and 0.15% ammonium sulphate for 24 hours prior to mechanical disruption using a French pressure cell. Cellular debris was pelted by centrifugation at 20,000×g for 30 minutes.
Additionally, we fractionated supernatant from E. coli containing the parental plasmid which was used as an empty vector control. Fractions containing the histidine tagged TadD protein (and the corresponding fractions from the empty vector fractionation) were then used in ND-G3PDH activity assays.

purified lipid bodies [2] = assay: Western blotting of lipid bodies from the aggregation assay; assay type: binding, R. opacus PD630; settings: supernatant and washed lipid body fractions
yeast = assay: Yeast agglutination assay; assay type: cell-based; settings: FIG. 85
purified lipid bodies [3] = assay: Lipid aggregation assay with purified lipid bodies; assay type: biochemical, R. opacus PD630
Method: Lipid bodies were purified from R. opacus PD630 as previously described (27) with minor modifications. Briefly, R. opacus was grown for 96 h in minimal media supplemented with 4% glucose and 0.15% ammonium sulphate. Cultures were harvested via centrifugation at 6000×g for 20 minutes. Cell pellets were resuspended in 25 ml of PBS and lysed by passing through a French pressure cell set at 18,000 psi 5 times. An equal volume of 80% glycerol was added to lysates followed by centrifugation at 6000×g for 3 h at 4° C. Following centrifugation, the upper layer (lipid body fraction) was removed to 40 ml of 40% glycerol (tube #1) and the pellet (cell debris) was resuspended in 40 ml of 40% glycerol (tube #2) followed by a second centrifugation at 6000×g for 3 h. The lipid body layer (upper layer) from tube #1 was removed to 20 ml PBS and the cell debris (pellet) from tube #2 was resuspended in 20 ml of PBS followed by centrifugation at 7500×g for 30 min. All fractions were then resuspended in 5 ml of PBS and used immediately. […] Wells were imaged using a Canon Powershot SD1200 IS digital camera (Canon, Lake Success, N.Y.). To obtain a more quantitative measure of aggregation, 2 μl of the supernatant was removed from each well and the optical density at 600 nm was determined using a Nano-Drop spectrophotometer (Thermo Scientific, Wilmington, Del.).

[4] = Heparin-sepharose binding
Method: Purified TadA was diluted to a final concentration of 500 μg/ml in dialysis buffer. 100 mg of Heparin-sepharose CL-6B (GE Healthcare, Piscataway, N.J.) was resuspended in 5 ml of Tris buffer (20 mM Tris (pH7.0), 100 mM NaCl) and allowed to rehydrate with gentle agitation for 1 h. Following rehydration, the resin was pelleted via centrifugation at 1000×g for 2 minutes and subsequently washed 3 times in the same buffer. The resin was resuspended in 1 ml of Tris buffer to which 500 μg of purified TadA was added. The Sepharose-TadA slurry was incubated at 4° C. for 1 h with gentle agitation. Following incubation, the resin was pelleted, an aliquot of the supernatant was removed (flow-through fraction), the Sepharose was washed 5 times with Tris buffer and an aliquot of the supernatant from the final wash was removed (wash fraction). The remaining heparin-sepharose was resuspended in 1 ml of Tris buffer from which an aliquot was removed (beads fraction). 5× SDS-PAGE loading buffer was added to each aliquot, which were then boiled for 5 min. Samples were resolved using 10% acrylamide Ready gel Tris-HCl SDS-PAGE gels (Bio-Rad, Hercules, Calif.) and stained using colloidal coomassie as previously described (18, 31).

Molecule | NAD(P)H formation (increase in optical density at 340 nm) [1] | association with lipid bodies (anti-penta-histidine Western blot) (purified lipid bodies [2]) | yeast agglutination (yeast) | optical density at 600 nm of the supernatants (purified lipid bodies [3]; 2 μl supernatant from each well) | lipid body aggregation and flocculation (96 well dish) (purified lipid bodies [3]; increasing protein concentrations, 12 h room temperature) | size of lipid body aggregates (Nile Red fluorescent microscopy) (purified lipid bodies [3]; samples from the aggregation assay) | binding to heparin-sepharose in the presence of pure heparin ([4]; control with pure heparin) | binding to heparin-sepharose (SDS-PAGE of flow through, wash, beads) ([4]; purified hexa-histidine protein)
TadD: R. opacus PD630 non-phosphorylating NAD(P)+-dependent glyceraldehyde 3-phosphate dehydrogenase homolog, SEQ ID NO:4 (protein, listed as Rhodoccus opacus) MSIAADSLSNITPPGLTIDGEITTTAAVIPVINPATESAFIEVPDAGVEQLDAAVSAARRAAKHWATHDLPFRQGIVLRLVDHVRANIDELARLVTLEQGKPLAKAAGEIESGLRGLERYASWDIPVEVIRDNDDELIEVHRAPVGVVGGITAWNYPLLLALWKIGPALITGNPIIVKPSPLTPVATLRLGELAQQILPPGVLQVLSGGDDLGRAMTAHTGIDKITFTGSERAGKSIMAGAGATLKRLTLELGGNDPGIVLDDVDVASIAADLYWGALSNCGQVCAGLKRLYVPQHLAPAIEEALAEVAKGVKVGNGLDDGVDMGPVQNAAQFTKVRGYVDDAANRGADVYFRGEVPEGPGYFHPVTLVRGVDDSVPLVREEQFGPVLPILTYTDIDDVIARANDSELALGASVWSSDEQRATEVAERVEAGTVWVNQHPMLSSDVPFGGVKQSGLGVEQSIHGVLEYTNYRVLRVKR | significantly more NAD(P)H |  |  |  |  |  |  | 
TadA: R. opacus PD630 heparin-binding hemagglutinin homolog, SEQ ID NO:11 (protein, listed as Rhodoccus opacus) MTDQKTIDSVKTSLYAAVGAGDVVVQAVADVVAQVRSRAESTQGDVEERVGGAKERIAGLQEEVTEGVENLRDRLAGLPSELPEELAELREKFTADELRKVAEAYLKVASDLYTSLAERGEDTVERIRKQPVVEEGIGRAETAFGDAVELTEEALGTVARQTRAVGEQAAKLAGRASGRISDTAEGLGEAIADAGDEAALKVLDLGDQAEEASKDAADRVAATAADVQAQADKAAQAKHAAPAKKAAPAKAAATPAPAPAKKVAAPAKKAAPAKKA |  | detected in both the supernatant as well as the lipid body fractions | yeast agglutination mediated by TadA | decreases as protein concentration increases | capable of inducing lipid body aggregation and subsequent flocculation in a dose-dependent manner | aggregated into very large clumps | completely abrogated any binding | the majority of the protein was found associated with the heparin-sepharose
